{"source": "patent US10801027B2", "about": "“Inhibitors of SRSF1 to treat neurodegenerative disorders” (University of Sheffield, priority 2016, dated 2020)", "molecules": {"B1": {"name": "SRSF1-m4: quadruple SRSF1 point mutant aa11-196, dominant negative, does not interact with TAP/NXF1 (protein)", "chain": "AGNNDCRIYVGNLPPDIRTKDIEDVFYKYGAIRDIDLKNRRGGPPFAFVEFEDPRDAEDAVYGRDGYDYDGYRLRVEFPASGAGTGRGGGGGGGGGAPRGRYGPPSAASENRVVVSGLPPSGSWQDLKDHMREAGDVCYADVYRDGTGVVEFVRKEDMTYAVRKLDNTKFRSHEGETAYIRVKVDG", "modifications": "left off: small tags and cut ends"}}, "key": {"[1]": {"test_system": "N2A cells", "experiment": "MTT cell proliferation assay", "type": "cell-based, mouse", "conditions": "G4C2×38 or C4G2×39 plasmids, 72 h", "protocol": "Neuro-2a (N2A) cells were split into each well of a 24 well plate (30,000 cells/well). Each plate contained 4 wells with only media to serve as a blank and 4 wells/treatment. Cells were transfected for 72 hours with either 500 ng pcDNA 3.1, pcDNA 3.1/RAN-G4C2×15 RAN-G4C2×38-sense, RAN-C4G2×15 or RAN-C4G2×39-antisense; or 250 ng pcDNA6.2-GW/EmGFP-Control miR RNAi, pcDNA6.2-GW/EmGFP-mouse SRSF1 miR1+2 RNAi, p3×FLAG/SRSF1 (11-196), or p3×FLAG/SRSF1 (11-196)-m4 and 250 ng pcDNA 3.1, pcDNA 3.1/RAN-G4C2×38-sense or RAN-C4G2×39-antisense.\n[…] Thiazolyl Blue Tetrazolum Bromide reagent (MTT) was added to each well and incubated in the dark at […] for 1 hour. Cells were subsequently lysed with equal volume MTT lysis buffer (20% SDS, 50% Dimethylformamide (DMF)) and incubated, shaking, at room temperature for 1 hour. Absorbance at 595 was then assessed with a PHERAstar FS (BMG Labtech). Experiments were performed in triplicate for each treatment. Absorbance data was analysed using PHERAstar MARS (BMG Labtech) and GraphPad Prism (version 6)."}, "[2]": {"test_system": "poly-Gly-Pro and poly-Gly-Ala DPRs", "experiment": "Western blot of RAN-translated DPRs in N2A cells", "type": "cell-based, mouse", "conditions": "G4C2×38 or C4G2×39 constructs, 72 h", "protocol": "Neuro-2a (ATCC) cells were cultured in Dulbecco's Modified Eagle Medium (Sigma) supplemented with 10% fetal bovine serum [FBS] (Gibco), 5 U/ml Penstrep (Lonza) and 5 mM sodium pyruvate. Cells were maintained in a […] incubator with 5% CO2. 75,000 Neuro-2a cells were split into each well of 24-well plates and transfected for 72 h with 500 ng pcDNA6.2-GW/EmGFP-Control miR RNAi (ThermoFisher) or pcDNA6.2-GW/EmGFP-mouse SRSF1 miR1+2 RNAi and 200 ng pcDNA 3.1/RAN-G4C2×38-sense or RAN-C4G2×39-antisense using 3 μg PEI/1 μg DNA and one tenth medium volume OptiMEM (ThermoFisher).\nHEK cells were transfected for 72 h with 650 ng pcDNA6.2-GW/EmGFP-Control miRNA, pCDNA6.2-GW/EmGFP-human SRSF1 miR1+2 RNAi or LV-EmGFP-human SRSF1 miR1+2 RNAi constructs and 50 ng p3×FLAG/human-SRSF1 using 3.5 μg PEI/ml media and one tenth medium volume of OptiMEM. Neuro-2a cells were split into each well of 24-well plates (75,000 cells/well) and transfected for 72 h with 350 ng pcDNA6.2-GW/EmGFP-Control miR RNAi (ThermoFisher), pcDNA6.2-GW/EmGFP-mouse SRSF1 miR1+2 RNAi, p3×FLAG, p3×FLAG/SRSF1 (11-196), p3×FLAG/SRSF1 (11-196)-m2 or p3×FLAG/SRSF1 (11-196)-m4 and 350 ng pcDNA 3.1/RAN-G4C2×38-sense or RAN-C4G2×39-antisense using 3 μg PEI/1 μg DNA and one tenth medium volume OptiMEM.\nProteins were extracted from HEK or Neuro-2a cells 72 hours after transfection. […] Protein extracts were quantified using Bradford Reagent (BioRAD), resolved by SDS-PAGE, electroblotted onto nitrocellulose membrane and probed using the relevant primary antibody. […] (kindly received from Prof Stuart Pickering Brown) primary antibodies were detected with horseradish peroxidase (HRP)-conjugated rabbit secondary antibody [1:5000 dilution] […] (kindly provided from Prof Dieter Edbauer) primary antibodies were detected using HRP-conjugated mouse secondary antibody [1:5000 dilution] […] For dot blot analysis, 50 μg total protein extracts prepared in ice-cold lysis buffer were loaded onto a nitrocellulose membrane using a microfiltration apparatus (Biorad) and analysed by western immunoblotting as previously described."}}}
{"molecule": "B1", "values": [{"measurement": "neurotoxicity mediated by expression of the C9ORF72 repeat transcripts", "setting": "[1]", "value": "suppress the neurotoxicity"}, {"measurement": "effect on RAN translation / production of sense and antisense DPRs", "setting": "[2]", "value": "marked reduction"}]}
